Test results as given in patent US20200123264A1 (Regeneron, published 2020).

T1: recombinant human LEPR extracellular domain expressed with a C-terminal mouse IgG2a Fc tag (human)
T1 construct: Dimeric construct; also called hLEPR.mFc; hLEPR-mFc
T1 chain: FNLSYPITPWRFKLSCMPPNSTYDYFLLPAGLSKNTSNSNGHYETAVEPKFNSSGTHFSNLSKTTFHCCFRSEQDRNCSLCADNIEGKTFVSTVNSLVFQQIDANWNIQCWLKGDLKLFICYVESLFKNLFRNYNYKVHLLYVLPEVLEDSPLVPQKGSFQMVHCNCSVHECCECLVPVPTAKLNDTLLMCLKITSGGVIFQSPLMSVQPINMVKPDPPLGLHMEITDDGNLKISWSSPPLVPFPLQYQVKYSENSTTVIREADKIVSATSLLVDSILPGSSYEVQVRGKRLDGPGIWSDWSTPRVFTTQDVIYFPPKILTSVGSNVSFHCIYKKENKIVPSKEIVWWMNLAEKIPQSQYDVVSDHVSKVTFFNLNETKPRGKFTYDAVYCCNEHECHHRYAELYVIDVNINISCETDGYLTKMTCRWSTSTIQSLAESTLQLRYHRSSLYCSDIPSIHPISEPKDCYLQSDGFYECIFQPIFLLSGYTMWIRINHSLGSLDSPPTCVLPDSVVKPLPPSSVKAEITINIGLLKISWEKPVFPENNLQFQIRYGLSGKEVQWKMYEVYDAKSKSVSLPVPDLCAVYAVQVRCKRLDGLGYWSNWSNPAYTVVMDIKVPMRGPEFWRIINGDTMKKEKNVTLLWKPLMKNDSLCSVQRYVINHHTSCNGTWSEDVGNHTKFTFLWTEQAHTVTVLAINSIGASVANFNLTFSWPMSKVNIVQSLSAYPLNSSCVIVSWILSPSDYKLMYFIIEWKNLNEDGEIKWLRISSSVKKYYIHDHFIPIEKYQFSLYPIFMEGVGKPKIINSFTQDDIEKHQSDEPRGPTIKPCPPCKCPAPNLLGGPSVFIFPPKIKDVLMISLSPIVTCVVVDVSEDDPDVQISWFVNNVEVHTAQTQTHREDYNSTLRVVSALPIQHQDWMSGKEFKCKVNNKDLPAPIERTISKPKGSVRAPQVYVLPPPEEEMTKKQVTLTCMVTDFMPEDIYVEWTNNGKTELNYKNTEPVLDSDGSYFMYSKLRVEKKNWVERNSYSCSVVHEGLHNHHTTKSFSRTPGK

B1: H4H18440P2 (antibody, human IgG4, V domains shown)
VH: QVQLVESGGGMVKPGGSLRLSCAASGFTFSDYYMSWIRQAPGKGLEWISHISITGSTIYYADSVKGRFTISRDNAKNSLYLEMNRLRDEDTAVYYCTRDEPDIVLVRYGMDVWGQGTTVTVSS
VL: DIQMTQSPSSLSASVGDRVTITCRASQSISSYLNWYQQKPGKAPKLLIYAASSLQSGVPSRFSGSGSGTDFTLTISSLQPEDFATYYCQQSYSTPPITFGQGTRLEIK
notes: H4H prefix: human IgG4 Fc
B2: H4H17322P2 (antibody, human IgG4, V domains shown)
VH: QLQLQESGPGLVKPSETLSLTCTVSGASISSSRFYGGWIRQPPGKGLEWIGDIYYSGNTYYNPSLQSRVTISVDTSKNQFSLKLSSVTAADTAVYYCARHLMITFGGLIVEGFDIWGQGTMVTVSS
VL: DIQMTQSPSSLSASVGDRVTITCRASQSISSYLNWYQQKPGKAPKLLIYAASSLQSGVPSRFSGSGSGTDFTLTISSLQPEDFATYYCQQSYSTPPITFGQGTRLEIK
notes: H4H prefix: human IgG4 Fc
B3: H4H18464P2 (antibody, human IgG4, V domains shown)
VH: QVQLVQSGPEVKKPGASVKVSCKGSGYTFSWYGISWIRQAPGHGLEWMGWISASSGNTRFAQKVQGRLTMTTDTSTSTAYMELRSLRSDDTAVYYCARTGTRPFDYWGQGTLVTVSS
VL: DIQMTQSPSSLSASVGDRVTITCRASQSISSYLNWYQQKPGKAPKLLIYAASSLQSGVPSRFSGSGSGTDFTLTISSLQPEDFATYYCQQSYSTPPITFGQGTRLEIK
notes: H4H prefix: human IgG4 Fc
B4: H4H18457P2 (antibody, human IgG4, V domains shown)
VH: EVQLVESGGSVVRPGESLRLSCAASGFTFDDYGMSWVRQAPGKGLEWVSGISWNGGITVYADSVKGRFTVSRDNAKNSLYLQMNSLRAEDTALYHCARARYGGADYWGQGTLVTVSS
VL: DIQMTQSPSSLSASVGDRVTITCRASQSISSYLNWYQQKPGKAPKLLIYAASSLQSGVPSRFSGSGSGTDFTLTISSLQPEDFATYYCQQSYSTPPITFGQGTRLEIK
notes: H4H prefix: human IgG4 Fc
B5: H4H18462P2 (antibody, human IgG4, V domains shown)
VH: EVQLVESGGDLVQPGRSLRLSCAASGFTFSSFAMSWVRQAPGRGLEWVSSLSDSGDNTYYADSVKGRFTISRDNSKNTLYLQMNNLRAEDTAVYYCAKDLFSGWLFHGFDVWGQGTMVTVSS
VL: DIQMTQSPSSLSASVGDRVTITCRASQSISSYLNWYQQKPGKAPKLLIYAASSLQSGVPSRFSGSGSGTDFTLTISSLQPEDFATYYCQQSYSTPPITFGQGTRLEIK
notes: H4H prefix: human IgG4 Fc

Biological target: T2, recombinant mouse LEPR extracellular domain expressed with a C-terminal myc-myc-hexahistidine tag (mouse, UniProt P48356 22-839)
T2 construct: Monomeric construct; also called mLEPR.MMH; mLEPR-MMH
T2 sequence (P48356 other isoform, or with tags, fused parts or gaps): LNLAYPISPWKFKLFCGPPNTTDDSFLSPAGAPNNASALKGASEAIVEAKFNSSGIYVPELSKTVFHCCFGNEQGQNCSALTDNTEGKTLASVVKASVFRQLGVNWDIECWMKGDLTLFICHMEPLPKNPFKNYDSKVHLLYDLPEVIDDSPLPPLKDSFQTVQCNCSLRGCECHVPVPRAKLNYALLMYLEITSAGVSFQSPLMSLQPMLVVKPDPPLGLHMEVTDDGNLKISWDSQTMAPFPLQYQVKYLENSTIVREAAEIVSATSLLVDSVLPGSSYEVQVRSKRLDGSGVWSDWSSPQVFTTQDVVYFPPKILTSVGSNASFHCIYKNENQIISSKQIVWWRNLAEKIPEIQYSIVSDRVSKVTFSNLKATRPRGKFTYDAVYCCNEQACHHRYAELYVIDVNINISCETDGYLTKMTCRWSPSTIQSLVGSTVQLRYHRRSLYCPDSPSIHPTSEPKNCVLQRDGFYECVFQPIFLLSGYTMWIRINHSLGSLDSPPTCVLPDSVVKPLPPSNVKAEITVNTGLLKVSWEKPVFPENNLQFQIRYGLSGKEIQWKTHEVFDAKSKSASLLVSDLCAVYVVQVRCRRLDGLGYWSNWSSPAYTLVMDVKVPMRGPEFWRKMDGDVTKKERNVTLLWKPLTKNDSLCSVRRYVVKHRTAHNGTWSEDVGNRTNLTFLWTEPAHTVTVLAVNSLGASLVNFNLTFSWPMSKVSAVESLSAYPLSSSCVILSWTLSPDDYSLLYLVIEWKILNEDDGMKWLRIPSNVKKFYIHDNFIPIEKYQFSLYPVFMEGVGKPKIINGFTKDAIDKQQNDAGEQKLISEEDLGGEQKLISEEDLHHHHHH
Experiment: SPR, mAb captured, 37 C
Experimental: (§1) Equilibrium dissociation constants (KD values) for antigen binding to purified anti-LEPR monoclonal antibodies of the invention were determined using a real-time surface plasmon resonance biosensor using a Biacore 4000 instrument. All binding studies were performed in running buffer containing 10 mM HEPES, 150 mM NaCl, 3 mM EDTA, and 0.05% v/v Surfactant Tween-20, pH 7.4 (HBS-ET running buffer) at 25° C. and 37° C. The Biacore sensor surface was first derivatized by amine coupling with a monoclonal mouse anti-human Fc antibody (GE, # BR-1008-39) to the capture anti-LEPR monoclonal antibodies. The LEPR reagents tested for binding to the anti-LEPR monoclonal antibodies included recombinant human LEPR extracellular domain expressed with a C-terminal myc-myc-hexahistidine tag (hLEPR.MMH; SEQ ID NO:90), recombinant cynomolgus monkey LEPR extracellular domain expressed with a C-terminal myc-myc-hexahistidine tag (mfLEPR.MMH; SEQ ID NO:93), recombinant mouse LEPR extracellular domain expressed with a C-terminal myc-myc-hexahistidine tag (mLEPR.MMH; SEQ ID NO:94), recombinant rat LEPR extracellular domain expressed with a C-terminal myc-myc-hexahistidine tag (rLEPR.MMH; SEQ ID NO:95), and recombinant human LEPR extracellular domain expressed with a C-terminal mouse IgG2a Fc tag (hLEPR.mFc; SEQ ID NO:91). LEPR constructs that include MMH tags are monomeric LEPR constructs, and LEPR constructs including an mFc tag are dimeric LEPR constructs. […] The dissociation of monoclonal antibody bound LEPR reagent was monitored for 10 minutes in HBS-ET running buffer. Kinetic association (10 and dissociation (10 rate constants were determined by fitting the real-time binding sensorgrams to a 1:1 binding model with mass transport limitation using Scrubber 2.0c curve-fitting software. Binding dissociation equilibrium constants (KD) and dissociative half-lives (t½) were calculated from the kinetic rate constants as: […]

| Binder | 100 nM mLEPR-MMH Bound (RU) |
| --- | --- |
| B1 | -1 RU |
| B2 | -1 RU |
| B3 | 1 RU |
| B4 | -1 RU |

Biological target: T3, recombinant cynomolgus monkey LEPR extracellular domain expressed with a C-terminal myc-myc-hexahistidine tag (cynomolgus monkey, UniProt Q9MYL0 22-837 (rhesus entry))
T3 construct: Monomeric construct; also called mfLEPR.MMH; mfLEPR-MMH
Experiment: SPR, mAb captured, 37 C
Experimental: as §1

| Binder | 100 nM mfLEPR-MMH Bound (RU) | Kd | koff | kon | t½ |
| --- | --- | --- | --- | --- | --- |
| B1 | 66 RU | 101 nM | 0.00724 s⁻¹ | 71500 M⁻¹ s⁻¹ | 1.6 min |
| B2 | 142 RU | 7.72 nM | 0.0011 s⁻¹ | 143000 M⁻¹ s⁻¹ | 10 min |
| B5 | 28 RU | 261 nM | 0.0337 s⁻¹ | 129000 M⁻¹ s⁻¹ | 0.3 min |
| B3 | 13 RU | 215 nM | 0.00841 s⁻¹ | 39200 M⁻¹ s⁻¹ | 1.4 min |
| B4 | 117 RU | 30 nM | 0.0104 s⁻¹ | 347000 M⁻¹ s⁻¹ | 1.1 min |

Biological target: T1, recombinant human LEPR extracellular …
Experiment: SPR, mAb captured, 37 C
Experimental: as §1

| Binder | 100 nM hLEPR-mFc Bound (RU) | Kd | koff | kon | t½ |
| --- | --- | --- | --- | --- | --- |
| B1 | 181 RU | 0.527 nM | 0.000112 s⁻¹ | 212000 M⁻¹ s⁻¹ | 103 min |
| B2 | 105 RU | 3.31 nM | 0.00044 s⁻¹ | 133000 M⁻¹ s⁻¹ | 26 min |
| B5 | 84 RU | 4.26 nM | 0.000543 s⁻¹ | 128000 M⁻¹ s⁻¹ | 21 min |
| B3 | 105 RU | 1.28 nM | 0.000517 s⁻¹ | 404000 M⁻¹ s⁻¹ | 22 min |
| B4 | 166 RU | 1.27 nM | 0.000704 s⁻¹ | 556000 M⁻¹ s⁻¹ | 16 min |

Biological target: T2, recombinant mouse LEPR extracellular …
Experiment: SPR, mAb captured, 25 C
Experimental: as §1

| Binder | 100 nM mLEPR-MMH Bound (RU) | binding result |
| --- | --- | --- |
| B1 | -3 RU |  |
| B2 | 0 RU |  |
| B5 | 2 RU | no binding (tested: 100 nM) |
| B3 | -1 RU |  |
| B4 | 1 RU |  |

Biological target: T4, recombinant rat LEPR extracellular domain expressed with a C-terminal myc-myc-hexahistidine tag (rat, UniProt Q62959 22-839)
T4 construct: Monomeric construct; also called rLEPR.MMH; rLEPR-MMH
T4 sequence (Q62959 other isoform, or with tags, fused parts or gaps): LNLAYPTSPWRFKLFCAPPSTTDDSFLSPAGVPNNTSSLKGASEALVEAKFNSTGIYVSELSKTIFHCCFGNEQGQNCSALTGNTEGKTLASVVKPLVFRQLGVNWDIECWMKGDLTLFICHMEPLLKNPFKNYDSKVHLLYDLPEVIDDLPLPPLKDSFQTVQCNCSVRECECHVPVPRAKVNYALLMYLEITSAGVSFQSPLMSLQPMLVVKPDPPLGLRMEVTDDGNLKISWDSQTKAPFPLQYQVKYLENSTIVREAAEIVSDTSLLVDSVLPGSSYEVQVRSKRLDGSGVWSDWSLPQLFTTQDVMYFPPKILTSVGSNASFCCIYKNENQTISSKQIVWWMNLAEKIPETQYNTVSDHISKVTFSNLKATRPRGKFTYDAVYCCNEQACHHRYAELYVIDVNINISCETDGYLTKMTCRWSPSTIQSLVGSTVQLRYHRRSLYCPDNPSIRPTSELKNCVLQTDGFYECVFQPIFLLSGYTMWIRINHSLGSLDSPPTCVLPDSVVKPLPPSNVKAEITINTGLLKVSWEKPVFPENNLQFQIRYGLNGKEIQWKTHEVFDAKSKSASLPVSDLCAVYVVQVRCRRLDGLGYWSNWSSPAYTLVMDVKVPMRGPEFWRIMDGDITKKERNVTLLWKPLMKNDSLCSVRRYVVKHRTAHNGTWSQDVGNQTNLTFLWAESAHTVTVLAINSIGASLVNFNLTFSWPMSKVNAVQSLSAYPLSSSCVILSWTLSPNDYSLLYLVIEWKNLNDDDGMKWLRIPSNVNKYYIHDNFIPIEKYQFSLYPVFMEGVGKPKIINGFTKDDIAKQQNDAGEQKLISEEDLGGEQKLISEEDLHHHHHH
Experiment: SPR, mAb captured, 25 C
Experimental: as §1

| Binder | 100 nM rLEPR-MMH Bound (RU) | Kd | koff | kon | t½ |
| --- | --- | --- | --- | --- | --- |
| B1 | -2 RU |  |  |  |  |
| B5 | 5 RU | 336 nM | 0.0108 s⁻¹ | 32100 M⁻¹ s⁻¹ | 1.1 min |
| B3 | -1 RU |  |  |  |  |
| B4 | 18 RU | 730 nM | 0.0206 s⁻¹ | 28300 M⁻¹ s⁻¹ | 0.6 min |

Biological target: T3, recombinant cynomolgus monkey LEPR …
Experiment: SPR, mAb captured, 25 C
Experimental: as §1

| Binder | 100 nM mfLEPR-MMH Bound (RU) | Kd | koff | kon | t½ |
| --- | --- | --- | --- | --- | --- |
| B1 | 67 RU | 54.1 nM | 0.00268 s⁻¹ | 49500 M⁻¹ s⁻¹ | 4.3 min |
| B2 | 102 RU | 4.16 nM | 0.000292 s⁻¹ | 70200 M⁻¹ s⁻¹ | 40 min |
| B5 | 42 RU | 179 nM | 0.0133 s⁻¹ | 74200 M⁻¹ s⁻¹ | 0.9 min |
| B3 | 15 RU | 60.4 nM | 0.00231 s⁻¹ | 38200 M⁻¹ s⁻¹ | 5 min |
| B4 | 133 RU | 12.2 nM | 0.00331 s⁻¹ | 273000 M⁻¹ s⁻¹ | 3.5 min |

Biological target: T5, recombinant human LEPR extracellular domain expressed with a C-terminal myc-myc-hexahistidine tag (human, UniProt P48357 22-839)
T5 construct: Monomeric construct; also called hLEPR.MMH; hLEPR-MMH
Experiment: SPR, mAb captured, 25 C
Experimental: as §1

| Binder | 100 nM hLEPR-MMH Bound (RU) | Kd | koff | kon | t½ |
| --- | --- | --- | --- | --- | --- |
| B1 | 71 RU | 11.8 nM | 0.000497 s⁻¹ | 42300 M⁻¹ s⁻¹ | 23 min |
| B2 | 66 RU | 5.11 nM | 0.000224 s⁻¹ | 43800 M⁻¹ s⁻¹ | 52 min |
| B5 | 34 RU | 113 nM | 0.00765 s⁻¹ | 67900 M⁻¹ s⁻¹ | 1.5 min |
| B3 | 60 RU | 9.09 nM | 0.00113 s⁻¹ | 124000 M⁻¹ s⁻¹ | 10 min |
| B4 | 119 RU | 9.89 nM | 0.00252 s⁻¹ | 255000 M⁻¹ s⁻¹ | 5 min |

Biological target: T1, recombinant human LEPR extracellular …
Experiment: SPR, mAb captured, 25 C
Experimental: as §1

| Binder | 100 nM hLEPR-mFc Bound (RU) | Kd | koff | kon | t½ |
| --- | --- | --- | --- | --- | --- |
| B1 | 140 RU | 0.443 nM | 6.82e-05 s⁻¹ | 154000 M⁻¹ s⁻¹ | 169 min |
| B2 | 74 RU | 1.77 nM | 0.000114 s⁻¹ | 64500 M⁻¹ s⁻¹ | 102 min |
| B5 | 68 RU | 3.26 nM | 0.000296 s⁻¹ | 90800 M⁻¹ s⁻¹ | 39 min |
| B3 | 84 RU | 0.891 nM | 0.000188 s⁻¹ | 211000 M⁻¹ s⁻¹ | 61 min |
| B4 | 149 RU | 0.863 nM | 0.000423 s⁻¹ | 491000 M⁻¹ s⁻¹ | 27 min |
